Test results taken from patent US20210206877.

Target: certain anti-BACE1 antibodies (tested in the FRET short substrate assay)

B1: BACE1 ECD (as used in the enzyme activity assay) (protein)
chain: TQHGIRLPLRSGLGGAPLGLRLPRETDEEPEEPGRRGSFVEMVDNLRGKSGQGYYVEMTVGSPPQTLNILVDTGSSNFAVGAAPHPFLHRYYQRQLSSTYRDLRKGVYVPYTQGKWEGELGTDLVSIPHGPNVTVRANIAAITESDKFFINGSNWEGILGLAYAEIARPDDSLEPFFDSLVKQTHVPNLFSLQLCGAGFPLNQSEVLASVGGSMIIGGIDHSLYTGSLWYTPIRREWYYEVIIVRVEINGQDLKMDCKEYNYDKSIVDSGTTNLRLPKKVFEAAVKSIKAASSTEKFPDGFWLGEQLVCWQAGTTPWNIFPVISLYLMGEVTNQSFRITILPQQYLRPVEDVATSQDDCYKFAISQSSTGTVMGAVIMEGFYVVFDRARKRIGFAVSACHVHDEFRTAAVEGPFVTLDMEDCGYNIPQTDESTLMT
Question: B1 was tested. Which “Modulation of BACE1 activity (cleavage of FRET short substrate Mca-SEVNLDAEFRK(Dnp)RR-NH2)” value did it give?
Answer: Its value is “both enzyme inhibition (positive percentages), and enzyme activation (negative values) were observed”.
